Values quoted from earlier work in patent publication US7323168B2, “Immunotherapy for chronic myelocytic leukemia” (Immunomedics, Inc., priority 2000, dated 2008).

System: IFN-γ levels
Details: single intravenous dose 42.5 μg/kilogram, rhesus monkeys

B1: recombinant IL-12: recombinant interleukin-12 (protein, UniProt P29459 23-219; P29460 23-328, looked up)
Interleukin-12 subunit alpha: RNLPVATPDPGMFPCLHHSQNLLRAVSNMLQKARQTLEFYPCTSEEIDHEDITKDKTSTVEACLPLELTKNESCLNSRETSFITNGSCLASRKTSFMMALCLSSIYEDLKMYQVEFKTMNAKLLMDPKRQIFLDQNMLAVIDELMQALNFNSETVPQKSSLEEPDFYKTKIKLCILLHAFRIRAVTIDRVMSYLNAS
Interleukin-12 subunit beta: IWELKKDVYVVELDWYPDAPGEMVVLTCDTPEEDGITWTLDQSSEVLGSGKTLTIQVKEFGDAGQYTCHKGGEVLSHSLLLLHKKEDGIWSTDILKDQKEPKNKTFLRCEAKNYSGRFTCWWLTTISTDLTFSVKSSRGSSDPQGVTCGAATLSAERVRGDNKEYEYSVECQEDSACPAAEESLPIEVMVDAVHKLKYENYTSSFFIRDIIKPDPPKNLQLKPLKNSRQVEVSWEYPDTWSTPHSYFSLTFCVQVQGKSKREKKDRVFTDKTSATVICRKNASISVRAQDRYYSSSWSEWASVPCS
IFN-γ levels: elevated
